The record followed here is PMC10719372, “Molecular mechanism of phospholipid transport at the bacterial outer membrane interface” (Nature Communications, 2023).

First the molecules themselves.
B1: OmpC (natural protein, E. coli, UniProt P06996 22-367, looked up)
chain: AEVYNKDGNKLDLYGKVDGLHYFSDNKDVDGDQTYMRLGFKGETQVTDQLTGYGQWEYQIQGNSAENENNSWTRVAFAGLKFQDVGSFDYGRNYGVVYDVTSWTDVLPEFGGDTYGSDNFMQQRGNGFATYRNTDFFGLVDGLNFAVQYQGKNGNPSGEGFTSGVTNNGRDALRQNGDGVGGSITYDYEGFGIGGAISSSKRTDAQNTAAYIGNGDRAETYTGGLKYDANNIYLAAQYTQTYNATRVGSLGWANKAQNFEAVAQYQFDFGLRPSLAYLQSKGKNLGRGYDDEDILKYVDVGATYYFNKNMSTYVDYKINLLDDNQFTRDAGINTDNIVALGLVYQF
notes: OmpC, outer membrane porin, E. coli; In the pull-down with MlaA variants some samples may have held OmpC-His (pDSW206ompC-His) in place of untagged OmpC; also called osmoporin OmpC; trimeric OmpC; source: E. coli BL21(λDE3) ΔompF::kan, over-expressed from pDSW206ompC; in DDM-solubilised lysate (pull-down) and purified with its partners (Ni-NTA, SEC)
B2: MlaA^Q205C (of the disulfide-trapped OmpC-MlaA-MlaC complex) (natural protein, E. coli, UniProt P76506 18-251, looked up)
chain: CASSGTDQQGRSDPLEGFNRTMYNFNFNVLDPYIVRPVAVAWRDYVPQPARNGLSNFTGNLEEPAVMVNYFLQGDPYQGMVHFTRFFLNTILGMGGFIDVAGMANPKLQRTEPHRFGSTLGHYGVGYGPYVQLPFYGSFTLRDDGGDMADGFYPVLSWLTWPMSVGKWTLEGIETRAQLLDSDGLLRCSSDPYIMVREAYFQRHDFIANGGELKPQENPNAQAIQDDLKDIDSE
modifications: engineered MlaA^Q205C-MlaC^V171C disulfide bond
notes: MlaA, OM lipoprotein, E. coli; also called MlaA^Cys

Data set [1] deals with the molecule itself. Briefly: SEC-MALS; SEC-purified disulfide-trapped OmpC3-MlaA^Cys-MlaC^Cys-His at 3 mg/ml, Superdex 200 Increase 10/300 GL, TBS pH 8.0 with 0.025% DDM, protein-conjugate analysis. On the technique in general: In gel filtration, larger molecules generally elute earlier.
Data set [2] concerns the target B1. Description: cryo-EM structure; disulfide-trapped OmpC3-MlaA^Q205C-MlaC^V171C-His in MSP2N2 nanodiscs with E. coli polar lipids; 2.9 Å overall, density of MlaC limited to 5.0-7.0 Å. The following applies: both partners purified.
In data set [3] the target is B1. Briefly: SEC-MALS; SEC-purified disulfide-trapped OmpC3-MlaA^Cys-MlaC^Cys-His at 3 mg/ml, Superdex 200 Increase 10/300 GL, TBS pH 8.0 with 0.025% DDM, protein-conjugate analysis. The following applies: both partners purified.

B1: the stoichiometry N (as a rule, a count of units in the complex or per binding partner) in data set [1] is 3.
As for B2, the “stoichiometry N” value is 1 to 3 per OmpC trimer in data set [2] and approximately 2 per OmpC trimer in data set [3].
